Test results as given in patent US20220280611A1, “SOLID COMPOSITION COMPRISING A PYY COMPOUND AND A SALT OF N-(8-(2- HYDROXYBENZOYL)AMINO)CAPRYLIC ACID” (Novo Nordisk A/S, priority 2019, published 2022).
Starred links: 1 amine or outer side, 2 acyl side, 3 side chain; linkers in the order of their positions; H or OH if unused. Non-standard residues stand in square brackets, D forms with d. Groups on a side chain read outwards from the residue. No end group written: not given here. *: point of attachment. Decanoyl(10-(4-HOOC-PhO)) = O=C(O)c1ccc(OCCCCCCCCCC(=O)*)cc1; γGlu = O=C(O)[C@H](CCC(=O)[*:2])N[*:1]; AEEA = NCCOCCOCC(=O)O; Aib = CC(C)(N)C(=O)O

How the values were obtained:
[1] = in words; PCT/EP2019/052487; cited from earlier work
[2] = Assay IV: Pharmacokinetic studies in Beagle dogs (oral exposure); type: in vivo; conditions: peroral
Procedure: Pharmacokinetic (PK) studies in Beagle dogs are conducted to determine the exposure of the PYY compound after peroral administration of different dosage forms.
For the pharmacokinetic studies male Beagle dogs are used, 1 to 5 years of age and weighing approximately 10-12 kg at the start of the studies. The dogs are group housed in pens (12 hours light: 12 hours dark), and fed individually and restrictedly once daily with Royal Canin Medium Adult dog (Royal Canin Products, China Branch, or Brogaarden A/S, Denmark). Exercise and group social are permitted daily, whenever possible. The dogs are used for repeated pharmacokinetic studies with a suitable wash-out period between successive dosings. An appropriate acclimatisation period is given prior to initiation of the first pharmacokinetic study. All handling, dosing and blood sampling of the animals are performed by trained and skilled staff. Before the studies the dogs are fasted overnight and from 0 to 4 h after dosing. Besides, the dogs are restricted to water 1 hour before dosing until 4 hours after dosing, but otherwise have ad libitum access to water during the whole period.
The tablets comprising the PYY compound are administered in the following manner: 10 min prior to tablet administration the dogs are dosed subcutaneously with approximately 3 nmol/kg of SEQ ID NO: 34). The PYY tablets are placed in the back of the mouth of the dog to prevent chewing. The mouth is then closed and tap water is given by a syringe or gavage to facilitate swallowing of the tablet.
Blood is sampled at predefined time points for up till 10 hr post dosing to adequately cover the full plasma concentration-time absorption profile of the PYY compound.
For each blood sampling time point approximately 0.8 mL of whole blood is collected in a 1.5 mL EDTA coated tube, and the tube is gently turned to allowing mixing of the sample with the EDTA. Blood samples (for example 0.8 mL) are collected in EDTA buffer (8 mM) and then centrifuged at 4° C. and 2000 G for 10 minutes. Plasma is pipetted into Micronic tubes on dry ice and kept at −20° C. until analysis. […]
PYY compound was assayed in dog plasma by plasma protein precipitation and turboflow liquid chromatography tandem mass spectrometry (TF-LC-MS/MS). […] The mixture was analysed by TF-LC-MS/MS using a Cyclone turboflow column (0.5×50 mm, ThermoFisher Scientific) and an Aeris Peptide 3.6 um XB-C18 analytical column (50×2.1 mm, Phenomenex) or a Poroshell SB-C18 2.7 um analytical column (50×2.1 mm, Agilent). […] The deviation between nominal and calculated concentration in the calibrators and quality control samples was below 20%. […]

[3] = Test 4 tablet, SNAC amount 100 mg
[4] = Test 3 tablet, SNAC amount 300 mg

Question: For “N-epsilon26-[2-(2-{2-[2-(2-{2-[(S)-4-carboxy-4-(17-carboxyheptadecanoylamino) butyrylamino]ethoxy}ethoxy)acetylamino]ethoxy}ethoxy)acetyl][Aib8,Arg34]GLP-1(7-37) [Semaglutide]”, which “Oral availability when formulated in a SNAC formulation” value [1] is on record?
Answer: The value was “orally available”.

Question: With “N-epsilon27-[2-[2-[2-[[2-[2-[2-[[(4S)-4-carboxy-4-[10-(4-carboxyphenoxy)decanoylamino]butanoyl]amino]ethoxy]ethoxy]acetyl]amino]ethoxy]ethoxy]-acetyl], N-epsilon36-[2-[2-[2-[[2-[2-[2-[[(4S)-4-carboxy-4-[10-(4-carboxyphenoxy)decanoylamino]-butanoyl]amino]ethoxy]ethoxy]acetyl]amino]ethoxy]ethoxy]acetyl]-[Aib8,Glu22,Arg26,Lys27, Glu30,Arg34,Lys36]-GLP-1-(7-37)-peptidyl-Glu-Gly (H[Aib]EGTFTSDVSSYLEEQAARK([AEEA-AEEA-γGlu-Decanoyl(10-(4-HOOC-PhO))])FIEWLVRGK([AEEA-AEEA-γGlu-Decanoyl(10-(4-HOOC-PhO))])GEG) [GLP-1 agonist A]” as the substance, how does the “Oral availability when formulated in a SNAC formulation” value [1] read?
Answer: Its value is “orally available”.

Question: What does the source list for “N{alpha-4}-(3-Methylbutanoyl)-N{Epsilon-7}-6-[[(4S)-4-carboxy-4-(17-carboxy-heptadecanoylamino)butanoyl]amino]hexanoyl-[Arg4,Lys7,Gln18,Ile22,Tyr28, Trp30,Leu31]hPYY(4-36) [Compound 32]”?
Answer: Dose corrected AUC 0-30 min [2, 3]: 5.05 arbitrary unit; Dose corrected exposure t = 30 min [2, 3]: 0.268 kg/L

Question: With “N{alpha-4}-(3-Methylbutanoyl)-N{Epsilon-7}-6-[[(4S)-4-carboxy-4-(17-carboxy-heptadecanoylamino)butanoyl]amino]hexanoyl-[Arg4,Lys7,Pro9,Gln18,Tyr28,Trp30,Leu31]hPYY(4-36) [Compound 4]” as the substance, how does the “Dose corrected AUC 0-30 min” value [2, 4] read?
Answer: Its value is 2.24 arbitrary unit.

Question: What about the “Dose corrected exposure t = 30 min” value [2, 4] of the same substance?
Answer: The value was 0.138 kg/L.
